# Source: article PMC9798103
# Biological target: F-actin (polymerised from Ca2+-ATP G-actin of rabbit skeletal muscle) (rabbit) (UniProt P68135)
# Assay: co-sedimentation
substance,measurement,value
N-terminal half of RHGF-1 without the PDZ domain (RHGF-1-N-ΔPDZ) (domain or fragment),Kd,14 µM
